Experimental data taken from paper PMC9757750 (Science Advances, 2022).

How the values were obtained:
[1] = target: Flag-LegA15 used in the GST pulldown of Fig. 2E (Legionella pneumophila Philadelphia, UniProt Q5ZSR1); assay: pull-down; conditions: both partners purified
[2] = target: 6×His-LegA15, full-length (Legionella pneumophila Philadelphia, UniProt Q5ZSR1 1-471); assay: pull-down; conditions: both partners purified

B1: GST-p115 (1 to 651), ND (domain or fragment, human, UniProt O60763 1-651, looked up)
chain: MNFLRGVMGGQSAGPQHTEAETIQKLCDRVASSTLLDDRRNAVRALKSLSKKYRLEVGIQAMEHLIHVLQTDRSDSEIIGYALDTLYNIISNEEEEEVEENSTRQSEDLGSQFTEIFIKQQENVTLLLSLLEEFDFHVRWPGVKLLTSLLKQLGPQVQQIILVSPMGVSRLMDLLADSREVIRNDGVLLLQALTRSNGAIQKIVAFENAFERLLDIISEEGNSDGGIVVEDCLILLQNLLKNNNSNQNFFKEGSYIQRMKPWFEVGDENSGWSAQKVTNLHLMLQLVRVLVSPTNPPGATSSCQKAMFQCGLLQQLCTILMATGVPADILTETINTVSEVIRGCQVNQDYFASVNAPSNPPRPAIVVLLMSMVNERQPFVLRCAVLYCFQCFLYKNQKGQGEIVSTLLPSTIDATGNSVSAGQLLCGGLFSTDSLSNWCAAVALAHALQENATQKEQLLRVQLATSIGNPPVSLLQQCTNILSQGSKIQTRVGLLMLLCTWLSNCPIAVTHFLHNSANVPFLTGQIAENLGEEEQLVQGLCALLLGISIYFNDNSLESYMKEKLKQLIEKRIGKENFIEKLGFISKHELYSRASQKPQPNFPSPEYMIFDHEFTKLVKELEGVITKAIYKSSEEDKKEEEVKKTLEQHDNI
notes: also called N-terminal ARM domain; globular head
B1: binds [1]; binds [2].
